From patent publication US20070184022A1

Target: T1, H2-Kb molecules in the microsomes of RAW309Cr.1 cells (murine)
T1 chain 1: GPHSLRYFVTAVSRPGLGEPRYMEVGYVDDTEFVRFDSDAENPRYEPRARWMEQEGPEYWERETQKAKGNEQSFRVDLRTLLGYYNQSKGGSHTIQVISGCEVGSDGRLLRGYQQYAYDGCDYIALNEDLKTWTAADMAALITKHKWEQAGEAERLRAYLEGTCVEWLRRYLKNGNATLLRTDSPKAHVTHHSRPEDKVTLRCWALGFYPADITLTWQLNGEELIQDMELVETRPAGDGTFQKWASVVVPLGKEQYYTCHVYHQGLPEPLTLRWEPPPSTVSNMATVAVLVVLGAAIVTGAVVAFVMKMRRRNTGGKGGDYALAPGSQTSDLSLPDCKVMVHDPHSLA
T1 chain 2: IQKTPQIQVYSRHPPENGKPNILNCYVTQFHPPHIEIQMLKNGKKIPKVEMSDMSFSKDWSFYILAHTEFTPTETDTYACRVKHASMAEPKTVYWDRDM
Test: competition against 125I-labelled modified OVA peptide (competitor at the concentration of the report peptide), photo-crosslinking to Kb in microsomes
Details: remark: other sources report otherwise

percent of the report peptide competed: 50%
Binder: SIINFEKL [native OVA peptide (residues 257-264, SIINFEKL)]
